The results in this text go back to paper PMC5560758, “SCF^AtPP2-B11 modulates ABA signaling by facilitating SnRK2.3 degradation in Arabidopsis thaliana” (PLoS Genetics, 2017).

This assay addresses T1, MBP-SnRK2.3 (Arabidopsis thaliana, UniProt Q39193 1-361).
T1 construct: SnRK2.3 (SnRK2I) of Arabidopsis thaliana; ORF cloned into pMAL-c2x; pMAL-c2x places MBP at the N-terminus (surmised from the vector); also called SnRK2.3-MBP; source: E. coli BL21, purified (Amylose Resin)
T1 sequence (looked up): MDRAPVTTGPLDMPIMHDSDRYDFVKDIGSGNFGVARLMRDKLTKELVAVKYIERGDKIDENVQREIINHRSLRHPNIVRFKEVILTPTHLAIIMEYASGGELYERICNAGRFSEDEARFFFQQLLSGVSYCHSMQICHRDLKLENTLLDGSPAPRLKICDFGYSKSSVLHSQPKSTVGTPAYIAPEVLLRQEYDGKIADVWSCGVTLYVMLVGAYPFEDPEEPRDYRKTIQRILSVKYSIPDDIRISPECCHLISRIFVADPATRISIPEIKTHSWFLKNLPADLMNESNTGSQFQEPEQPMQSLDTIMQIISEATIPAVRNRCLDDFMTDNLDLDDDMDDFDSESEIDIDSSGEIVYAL
The assay is described as follows: pull-down; AtPP2-B11-GST held on GST beads, incubated with MBP-SnRK2s 2 h at room temperature or 4°C overnight; washed four times; anti-MBP blot. Conditions: both partners purified.

B1: GST-AtPP2-B11 (natural protein, Arabidopsis thaliana, UniProt Q949S5 1-257, looked up)
chain: MNNLPEDCIAKILSLTTPLDVCRLSAVSSIFRSAAGSDDVWNHFLPADFPAGFAAPAGLPTRKQLFFSLVDNPLLINGTLLSFSLERKSGNKCYMMAARALNIVWGHEQRYWHWISLPNTRFGEVAELIMVWWLEITGKINITLLSDDTLYAAYFVFKWNHSPYGFRQPVETSLVLADTESTDNVVQPSMISLMQDSGGEEGQSPVLRRDGWYEVELGQFFKRRGDLGEIEMSLKETKGPYEKKGLIVYGIEIRPVP
notes: AtPP2-B11, F-box protein of Arabidopsis thaliana, 257 amino acids; ORF cloned into pGEX-4T-1; pGEX-4T-1 places GST at the N-terminus (surmised from the vector); also called AtPP2-B11-GST; source: E. coli BL21, purified (Glutathione Agarose)
Consider B1, for which the binding result is “binds”.
